Each block holds one binder with its values, some of them ahead of it.
Key:
FcγRIIIa (CD16a Phe158) = biological target: T1, FcγRIIIa (CD16a Phe158) (UniProt P08637 17-254, limits assumed); assay: flow cytometry, CHO cells stably expressing CD16a Phe158, fluorescent anti-human IgG secondary, MFI (mean)
T1 construct: whole, on cells; allotype Phe158 as printed
Description: ALG.APV-210 contains mutations introduced to prevent interaction with Fcγ receptors (FcγR) that could lead to FcγR-mediated T-cell activation or ADCC, ADCP, CDC etc. Binding of ALG.APV-210 was therefore tested on CHO cell transfectants stably expressing the following FcγR: FcγRI (CD64), FcγRIIa (CD32a His131), FcγRIIb (CD32b), FcγRIIIa (CD16a Val158 and CD16a Phe158), and FcγRIIIb (CD16b). Untransfected CHO cells were used as negative control. A control human IgG1 molecule was used as a positive control. Different concentrations of ALG.APV-210 or control IgG1 were incubated with the FcγR-expressing cell lines, washed, and labeled with a secondary anti-human IgG reagent. Binding of ALG.APV-210 and the control IgG1 was detected by flow cytometry.

human CD137 on cells = human CD137 on cells (human, UniProt Q07011 24-255); assay: cell-based or functional assay
human 5T4 on cells [1] = biological target: T2, human 5T4 on cells (human, UniProt Q13641 32-420); assay: flow cytometry, HCT-116 cells, streptavidin-PE, normalized MFI of 2 pooled experiments; HCT-116 cells
T2 construct: also called TPBG; hu5T4
T2 sequence: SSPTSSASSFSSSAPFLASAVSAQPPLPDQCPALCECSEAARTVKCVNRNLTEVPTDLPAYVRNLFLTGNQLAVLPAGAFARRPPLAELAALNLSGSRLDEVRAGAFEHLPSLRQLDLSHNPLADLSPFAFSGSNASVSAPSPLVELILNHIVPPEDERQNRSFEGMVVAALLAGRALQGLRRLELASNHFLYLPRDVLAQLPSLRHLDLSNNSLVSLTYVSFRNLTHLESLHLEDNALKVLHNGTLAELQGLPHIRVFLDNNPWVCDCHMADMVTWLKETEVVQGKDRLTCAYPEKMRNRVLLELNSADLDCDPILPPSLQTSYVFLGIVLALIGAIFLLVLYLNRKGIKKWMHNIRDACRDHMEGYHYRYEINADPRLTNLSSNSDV
Protocol: (§1) Prior to the FACS staining, all cell lines were characterized for their 5T4 expression levels using a receptor density kit (Quantum Simply Cellular, anti-human IgG, Bangs Laboratories, Inc). Adherent cell lines were cultured according to their supplier's instructions and were harvested from their cell culture flasks using Trypsin/EDTA, counted in R10 medium in a Burker chamber, and diluted in FACS buffer (PBS+0.5% BSA, 0.05% NaN₃) to a concentration of 4×10⁶ cells/mL. 50 μL (0.20×10⁶) of cell solution was added to a 96-well FACS staining plate (Falcon #351190). Cells were incubated for 20 min in 4° C. with 50 μL of the biotinylated ALG.APV-210 (2× final concentration). The antibodies were added in a serial dilution starting at 20 μg/mL titrating down in a 12 step ½ dilution down to 0.010 μg/mL. Following 2× washing with FACS buffer, cells were incubated for 30 min in 4° C. with 100 μL of a secondary antibody (streptavidin-PE, BD #554061, diluted 1/500). […] Cells were analysed for ALG.APV-210 binding using flow cytometry (FACSVerse) by gating on single cells. MFI values (secondary antibody only subtracted) from 1 out of 2 independent experiments, as well as normalized data and EC₅₀-values of pooled data from 2 experiments were determined and plotted using GraphPad Prism 7, non-linear regression log (agonist) vs. normalized response—variable slope.

human 5T4 on cells [2] = biological target: T2, human 5T4 on cells; assay: flow cytometry, BxPC-3 cells, streptavidin-PE, normalized MFI of 2 pooled experiments
Protocol: as §1

human 5T4 on cells [3] = biological target: T2, human 5T4 on cells; assay: flow cytometry, CHO-K1 cells expressing human 5T4, labelled anti-human IgG secondary, MFI (mean)
Protocol: (§2) Binding studies were performed by standard flow cytometry-based staining procedures two cell lines expressing 5T4:CHO-K1 cells (obtained from Alligator) transduced with human or cynomolgus macaque 5T4 and SKOV-3 human ovarian adenocarcinoma cells which express (human) 5T4. All labeling and washes were performed in U-bottom 96-well plates in saline buffer with 0.1% BSA and 2 mM EDTA. Cell were plated at approximately 100,000 cells per well and incubated with a range of 100 nM to 0.05 nM concentrations of test molecules in […], for 30 minutes on ice. Cells were washed three times then incubated for another 30 min on ice with fluorescently-labeled secondary polyclonal antibody, F(ab′)² goat anti-human IgG (Jackson ImmunoResearch Laboratories). The cells were then washed twice and the samples acquired in a BD LSRII or a Symphony A3 flow cytometer. The sample files were analyzed using FlowJo software; the mean fluorescence intensity (MFI-mean) or median fluorescence intensity (MFI-median) of the live population of cells in each well was calculated after gating on live cells (forward vs side scatter). Nonlinear regression analysis to determine EC₅₀ values was performed in GraphPad Prism 6® graphing and statistics software.

cynomolgus 5T4 on cells = biological target: T3, cynomolgus 5T4 on cells (cynomolgus macaque, UniProt Q4R8Y9 35-420); assay: flow cytometry, CHO-K1 cells expressing cynomolgus 5T4, labelled anti-human IgG secondary, MFI (median)
T3 construct: whole, on cells; also called CHO-K1/cynomolgus 5T4 transfectants
T3 sequence (looked up): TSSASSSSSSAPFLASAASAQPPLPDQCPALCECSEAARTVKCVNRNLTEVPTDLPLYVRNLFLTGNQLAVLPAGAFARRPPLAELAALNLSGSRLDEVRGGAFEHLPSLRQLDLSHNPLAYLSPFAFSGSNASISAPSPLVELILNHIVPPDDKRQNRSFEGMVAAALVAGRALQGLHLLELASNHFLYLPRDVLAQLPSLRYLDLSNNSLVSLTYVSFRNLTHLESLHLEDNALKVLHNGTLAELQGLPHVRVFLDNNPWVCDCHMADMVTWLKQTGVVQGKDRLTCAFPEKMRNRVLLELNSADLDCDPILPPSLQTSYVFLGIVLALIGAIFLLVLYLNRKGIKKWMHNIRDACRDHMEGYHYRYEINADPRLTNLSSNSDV
Protocol: as §2

Sequence of human CD137 on cells (Q07011 24-255 limits assumed): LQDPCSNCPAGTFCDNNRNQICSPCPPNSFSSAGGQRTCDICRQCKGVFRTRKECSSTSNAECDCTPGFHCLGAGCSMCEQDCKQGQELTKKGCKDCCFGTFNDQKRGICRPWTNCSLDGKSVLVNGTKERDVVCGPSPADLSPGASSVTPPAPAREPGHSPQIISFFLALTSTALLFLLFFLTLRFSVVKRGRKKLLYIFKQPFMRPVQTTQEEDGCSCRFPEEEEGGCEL
T1 sequence (P08637 17-254 limits assumed): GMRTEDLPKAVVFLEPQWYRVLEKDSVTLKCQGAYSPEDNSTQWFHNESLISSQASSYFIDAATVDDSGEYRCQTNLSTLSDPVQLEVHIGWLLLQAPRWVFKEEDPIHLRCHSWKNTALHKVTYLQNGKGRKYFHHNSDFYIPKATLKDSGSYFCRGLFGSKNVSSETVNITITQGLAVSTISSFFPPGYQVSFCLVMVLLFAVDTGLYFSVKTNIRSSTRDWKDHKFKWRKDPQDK

binding result (FcγRIIIa (CD16a Phe158)): no binding (tested: 1000 nM)
EC50 (nM), CD137 reporter assay with CHO/5T4 cells (human CD137 on cells): 0.0092 nM
EC50 (nM), CD137 reporter assay with H1975 cells (human CD137 on cells): 0.037 nM
EC50 (nM), CD137 reporter assay with MDA.MB-231 cells (human CD137 on cells): 0.054 nM
EC50 (nM), CD137 reporter assay with TF-1 cells (human CD137 on cells): 0.063 nM
B1: ALG.APV-210 (bispecific antibody)
chain: EVQLLESGGGLVQPGGSLRLSCAASGFTFSHGSMYWVRQAPGKGLEWVSSISSGSGSTYYADSVKGRFTISHDNSKNTLYLQMNSLRAEDTAVYYCARSSYYGSYYSIDYWGQGTLVTVSSGGGGSGGGGSGGGGSGGGGSDIQMTQSPSSLSASVGDRVTITCRASQSISSYLNWYQQKPGKAPKLLIYAASSLQSGVPSRFSGSGSGTDFTLTISSLQPEDFATYYCQQYYDNLPTFGQGTKLEIKEPKSSDKTHTCPPCPAPEAAGAPSVFLFPPKPKDTLMISRTPEVTCVVVDVSHEDPEVKFNWYVDGVEVHNAKTKPREEQYNSTYRVVSVLTVLHQDWLNGKEYKCAVSNKALPAPIEKTISKAKGQPREPQVYTLPPSRDELTKNQVSLTCLVKGFYPSDIAVEWESNGQPENNYKTTPPVLDSDGSFFLYSKLTVDKSRWQQGNVFSCSVMHEALHNHYTQKSLSLSPGSGGGGSGGGGSGGGGSPSEVQLLESGGGLVQPGGSLRLSCAASGFTFSSYAMSWVRQAPGKCLEWVSAISGSGGSTYYADSVKGRFTISRDNSKNTLYLQMNSLRAEDTAVYYCARYYGGYYSAWMDYWGQGTLVTVSSGGGGSGGGGSGGGGSGGGGSDIQMTQSPSSLSASVGDRVTITCRASQSISSFLNWYQQKPGKAPKLLIYAASSLQSGVPSRFSGSGSGTDFTLTISSLQPEDSATYYCQQTYGYLHTFGCGTKLEIKR
notes: Optimized ADAPTIR scFv-Fc-scFv homodimer with stabilizing disulfide in the 1210 scFv; also called 5T4-CD137 bispecific antibody

B2: biotinylated ALG.APV-210 (bispecific antibody)
chain: EVQLLESGGGLVQPGGSLRLSCAASGFTFSHGSMYWVRQAPGKGLEWVSSISSGSGSTYYADSVKGRFTISHDNSKNTLYLQMNSLRAEDTAVYYCARSSYYGSYYSIDYWGQGTLVTVSSGGGGSGGGGSGGGGSGGGGSDIQMTQSPSSLSASVGDRVTITCRASQSISSYLNWYQQKPGKAPKLLIYAASSLQSGVPSRFSGSGSGTDFTLTISSLQPEDFATYYCQQYYDNLPTFGQGTKLEIKEPKSSDKTHTCPPCPAPEAAGAPSVFLFPPKPKDTLMISRTPEVTCVVVDVSHEDPEVKFNWYVDGVEVHNAKTKPREEQYNSTYRVVSVLTVLHQDWLNGKEYKCAVSNKALPAPIEKTISKAKGQPREPQVYTLPPSRDELTKNQVSLTCLVKGFYPSDIAVEWESNGQPENNYKTTPPVLDSDGSFFLYSKLTVDKSRWQQGNVFSCSVMHEALHNHYTQKSLSLSPGSGGGGSGGGGSGGGGSPSEVQLLESGGGLVQPGGSLRLSCAASGFTFSSYAMSWVRQAPGKCLEWVSAISGSGGSTYYADSVKGRFTISRDNSKNTLYLQMNSLRAEDTAVYYCARYYGGYYSAWMDYWGQGTLVTVSSGGGGSGGGGSGGGGSGGGGSDIQMTQSPSSLSASVGDRVTITCRASQSISSFLNWYQQKPGKAPKLLIYAASSLQSGVPSRFSGSGSGTDFTLTISSLQPEDSATYYCQQTYGYLHTFGCGTKLEIKR
notes: also called ALG.APV-210 (biotinylated for FACS detection)
EC50 (human 5T4 on cells [1]): 16 nM
EC50 (human 5T4 on cells [2]): 20 nM

EC50 (human 5T4 on cells [3]): 5.6 nM
Maximum MFI (human 5T4 on cells [3]): 13500
EC50 (cynomolgus 5T4 on cells): 21 nM
Maximum MFI (cynomolgus 5T4 on cells): 25400
B3: ALG.APV-187 (bispecific antibody)
chain: EVQLLESGGGLVQPGGSLRLSCAASGFTFSHGSMYWVRQAPGKGLEWVSSISSGSGSTYYADSVKGRFTISHDNSKNTLYLQMNSLRAEDTAVYYCARSSYYGSYYSIDYWGQGTLVTVSSGGGGSGGGGSGGGGSGGGGSDIQMTQSPSSLSASVGDRVTITCRASQSISSYLNWYQQKPGKAPKLLIYAASSLQSGVPSRFSGSGSGTDFTLTISSLQPEDFATYYCQQYYDNLPTFGQGTKLEIKSSEPKSSDKTHTCPPCPAPEAAGAPSVFLFPPKPKDTLMISRTPEVTCVVVDVSHEDPEVKFNWYVDGVEVHNAKTKPREEQYNSTYRVVSVLTVLHQDWLNGKEYKCAVSNKALPAPIEKTISKAKGQPREPQVYTLPPSRDELTKNQVSLTCLVKGFYPSDIAVEWESNGQPENNYKTTPPVLDSDGSFFLYSKLTVDKSRWQQGNVFSCSVMHEALHNHYTQKSLSLSPGSGGGGSGGGGSGGGGSPSEVQLLESGGGLVQPGGSLRLSCAASGFTFSSYAMSWVRQAPGKCLEWVSAISGSGGSTYYADSVKGRFTISRDNSKNTLYLQMNSLRAEDTAVYYCARYYGGYYSAWMDYWGQGTLVTVSSGGGGSGGGGSGGGGSGGGGSDIQMTQSPSSLSASVGDRVTITCRASQSISSFLNWYQQKPGKAPKLLIYAASSLQSGVPSRFSGSGSGTDFTLTISSLQPEDSATYYCQQTYGYLHTFGCGTKLEIKR
notes: Optimized ADAPTIR scFv-Fc-scFv homodimer with stabilizing disulfide in the 1210 scFv

Source: patent publication US20190016816A1 (APTEVO RESEARCH AND DEVELOPMENT, published 2019)
